# Laboratory results from US11278600B2, “Human alpha-galactosidase variants” (Codexis, Inc., priority 2014, dated 2022).
# How the values were obtained:
# Assay type in all cases: biochemical
# [1] = HTP-analysis of yeast culture supernatants, no challenge (MUGal hydrolysis); details: activity of the variant/activity of Rd2BB (SEQ ID NO: 10), yeast culture supernatant
# Procedure, shortened: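 GLA variants expressed in yeast INVSc1, secreted into SD-Ura broth over 66-84 h at 30° C; clarified supernatants tested without challenge. Supernatant mixed with McIlvaine buffer pH 4.8 and 2 mM MUGal (citrate/KCl, pH 4.6), 37° C for 30-180 min, carbonate-quenched, fluorescence Ex 355/Em 448 nm.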
# [2] = HTP-analysis of supernatants pretreated with acid (MUGal hydrolysis); details: challenge at pH 4.2; activity of the variant/activity of Rd2BB (SEQ ID NO: 10); yeast culture supernatant
# Procedure, shortened: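 MUGal hydrolysis was tracked by fluorescence (Ex 355 nm, Em 448 nm) after a 30-180 min reaction at 37° C. in pH 4.8 McIlvaine/citrate buffer, stopped with 1 M sodium carbonate. Beforehand, yeast (INVSc1) culture supernatants carrying GLA variants were held 1-3 h at 37° C. in acidic McIlvaine buffer, pH 3.3-4.3.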
# [3] = HTP-analysis of supernatants pretreated with base (MUGal hydrolysis); details: challenge at pH 7.6; activity of the variant/activity of Rd2BB (SEQ ID NO: 10); yeast culture supernatant
# Procedure, shortened: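 Fluorescence of released 4-MU (Ex 355 nm, Em 448 nm) after carbonate quench reports MUGal hydrolysis by GLA variants secreted from INVSc1 yeast. Before the acidic (pH 4.3-4.8) 30-180 min reaction at 37° C, supernatants had been pre-incubated at pH 7.0-9.7 for 1-18 h at 37° C.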
# [4] = HTP-analysis of supernatants pretreated with bovine serum (MUGal hydrolysis); details: activity of the variant/activity of Rd2BB (SEQ ID NO: 10), yeast culture supernatant
# Protocol: Yeast (INVSc1) cells transformed with vectors expressing GLA and GLA variants using the lithium acetate method were selected on SD-Ura agar plates. After 72 h incubation at 30° C. colonies were placed into the wells of Axygen® 1.1 ml 96-well deep well plates filled with 200 μl/well SD-Ura broth (2 g/L SD-Ura, 6.8 g/L yeast nitrogen base without amino acids [Sigma Aldrich]), 3.06 g/L sodium dihydrogen phosphate, 0.804 g/L disodium hydrogen phosphate, pH 6.0 supplemented with 6% glucose. The cells were allowed to grow for 20-24 hours in a Kuhner shaker (250 rpm, 30° C., and 85% relative humidity). Overnight culture samples (20 μL) were transferred into Corning Costar® 96-well deep plates filled with 380 µL of SD-ura broth supplemented with 2% glucose. The plates were incubated for 66-84 h in a Kuhner shaker (250 rpm, 30° C., and 85% relative humidity). The cells were then pelleted (4000 rpm×20 min), and the supernatants isolated and stored at 4° C. prior to analysis.
# GLA variants were challenged with bovine serum to simulate the conditions the variants encounter following infusion into a patient. First, 20 μL of yeast culture supernatant and 80 μL, of bovine serum were added to the wells of a 96-well round bottom plate. The plates were sealed and incubated at 37° C. for 1 h. For the assay, 50 μL of serum-challenged sample was mixed with 25 μL, of 1 M citrate buffer pH 4.3 and 25 μL, of 4 mM MUGal in McIlvaine buffer pH 4.8. The reactions were mixed briefly and incubated at 37° C. for 180 minutes, prior to quenching with 100 μL, of 1 M sodium carbonate. Hydrolysis was analyzed using a SpectraMax® M2 microplate reader monitoring fluorescence (Ex. 355 nm, Em. 448 nm).
Molecule,Relative Activity of GLA Variants After No Challenge (NC) [1],Relative Activity of GLA Variants After Challenge at pH 4.2 [2],Relative Activity of GLA Variants After Challenge at pH 7.6 [3],Relative Activity of GLA Variants After Challenge with Serum [4]
"239 (protein, Synthetic Polypeptide sequence of Variant No. 239 of mature Human GLA) LDNGLARTPTMGWLHWERFMCNLDCQEEPDSCISEKLFMEMAELMVSEGWKDAGYEYLCIDDCWMAPQRDSEGRLQADPQRFPHGIRQLANYVHSKGLKLGIYADVGNKTCAGFPGSFGYYDIDAQTFADWGVDLLKFDGCYCDSLENLADGYKHMSLALNRTGRSIVYSCEWPLYMWPFQKPNYTEIRQYCNHWRNFADIDDSWASVKSILDWTSFNQEKIVDVAGPGGWNDPDMLVIGNFGLSWDQQVTQMALWAIMAAPLFMSNDLRHISPQAKALLQDKDVIAINQDPLGKQGYQLRQGDNFEVWERPLSGLAWAVAIINRQEIGGPRSYTIAVASLGDGVACNPACFITQLLPVKRKLGLYEWTSRLKSHVNPTGTVLLQLENTMQMSLKDLL",+++ (+++ = >2.5 relative activity over Rd2BB (SEQ ID NO: 10)),+++ (+++ = >2.5 relative activity over Rd2BB (SEQ ID NO: 10)),+++ (+++ = >2.5 relative activity over Rd2BB (SEQ ID NO: 10)),++ (++ = 1.5 to 2.5 relative activity over Rd2BB (SEQ ID NO: 10))
"243 (protein, Synthetic Polypeptide sequence of Variant No. 243 of mature Human GLA) LDNGLARTPTMGWLHWERFMCNLDCQEEPDSCISEKLFMEMAELMVSEGWKDAGYEYLCIDDCWMAPQRDSEGRLQADPQRFPHGIRQLANYVHSKGLKLGIYADVGNKTCAGFPGSFGYYDIDAQTFADWGVDLLKFDGCYCDSLENLADGYKHMSLALNRTGRSIVYSCEWPLYMWPFQKPNYTEIRQYCNHWRNFADIDDSWASIKSILDWTSFNQERIVDVAGPGGWNDPDMLVIGNFGLSWDQQVTQMALWAIMAAPLFMSNDLRHISPQAKALLQDKDVIAINQDPLGKQGYQLRKGDNFEVWERPLSGLAWAVAMINRQEIGGPRSYTIPVASLGGGVACNPGCFITQLLPVKRKLGFYEWTSRLRSHINPTGTVLLQLENTMQMSLKDLL",+++ (+++ = >2.5 relative activity over Rd2BB (SEQ ID NO: 10)),+++ (+++ = >2.5 relative activity over Rd2BB (SEQ ID NO: 10)),+++ (+++ = >2.5 relative activity over Rd2BB (SEQ ID NO: 10)),+++ (+++ = >2.5 relative activity over Rd2BB (SEQ ID NO: 10))
"241 (protein, Synthetic Polypeptide sequence of Variant No. 241 of mature Human GLA) LDNGLARTPTMGWLHWERFMCNLDCQEEPDSCISEKLFMEMAELMVSEGWKDAGYEYLCIDDCWMAPQRDSEGRLQADPQRFPHGIRQLANYVHSKGLKLGIYADVGNKTCAGFPGSFGYYDIDAQTFADWGVDLLKFDGCYCDSLENLADGYKHMSLALNRTGRSIVYSCEWPLYMWPFQKPNYTEIRQYCNHWRNFADIDDSWASIKSILDWTSFNQERIVDVAGPGGWNDPDMLVIGNFGLSWDQQVTQMALWAIMAAPLFMSNDLRHISPQAKALLQDKDVIAINQDPLGKQGYQLRQGDNFEVWERPLSGLAWAVAVINRQEIGGPRSYTIAVASLGDGVACNPACFITQLLPVKRKLGFYEWTSRLKSHVNPTGTVLLQLENTMQMSLKDLL",++ (++ = 1.5 to 2.5 relative activity over Rd2BB (SEQ ID NO: 10)),+++ (+++ = >2.5 relative activity over Rd2BB (SEQ ID NO: 10)),+++ (+++ = >2.5 relative activity over Rd2BB (SEQ ID NO: 10)),++ (++ = 1.5 to 2.5 relative activity over Rd2BB (SEQ ID NO: 10))
"240 (protein, Synthetic Polypeptide sequence of Variant No. 240 of mature Human GLA) LDNGLARTPTMGWLHWERFMCNLDCQEEPDSCISEKLFMEMAELMVSEGWKDAGYEYLCIDDCWMAPQRDSEGRLQADPQRFPHGIRQLANYVHSKGLKLGIYADVGNKTCAGFPGSFGYYDIDAQTFADWGVDLLKFDGCYCDSLENLADGYKHMSLALNRTGRSIVYSCEWPLYMWPFQKPNYTEIRQYCNHWRNFADIDDSWASIKSILDWTSFNQERIVDVAGPGGWNDPDMLVIGNFGLSWNQQVTQMALWAIMAAPLFMSNDIRHISPQAKALLQDKDVIAINQDPLGKQGYQLRQGDNFEVWERPLSGLAWAVAMINRQEIGGPRSYTIAVASLGKGVACNLACFITQLLPVKRKLGFYEWTSRLKSHINPTGTVLLQLENTMQMSLKDLL",− (− = <0.5 relative activity over Rd2BB (SEQ ID NO: 10)),+ (+ = 0.5 to 1.5 relative activity over Rd2BB (SEQ ID NO: 10)),+ (+ = 0.5 to 1.5 relative activity over Rd2BB (SEQ ID NO: 10)),+ (+ = 0.5 to 1.5 relative activity over Rd2BB (SEQ ID NO: 10))
"242 (protein, Synthetic Polypeptide sequence of Variant No. 242 of mature Human GLA) LDNGLARTPTMGWLHWERFMCNLDCQEEPDSCISEKLFMEMAELMVSEGWKDAGYEYLCIDDCWMAPQRDSEGRLQADPQRFPHGIRQLANYVHSKGLKLGIYADVGNKTCAGFPGSFGYYDIDAQTFADWGVDLLKFDGCYCDSLENLADGYKHMSLALNRTGRSIVYSCEWPLYMWPFQKPNYTEIRQYCNHWRNFADIDDSWASIKSILDWTSFNQERIVDVAGPGGWNDPDMLVIGNFGLSWDQQVTQMALWAIMAAPLFMSNDLRHISPQAKALLQDKDVIAINQDPLGKQGYQLRQGDNFEVWERPLSGLAWAVAVINRQEIGGPRSYTIAVASLGGGVACNPACFITQLLPVKRKLGLYEWTSRLKSHINPTGTVLLQLENTMQMSLKDLL",+++ (+++ = >2.5 relative activity over Rd2BB (SEQ ID NO: 10)),+++ (+++ = >2.5 relative activity over Rd2BB (SEQ ID NO: 10)),+++ (+++ = >2.5 relative activity over Rd2BB (SEQ ID NO: 10)),+++ (+++ = >2.5 relative activity over Rd2BB (SEQ ID NO: 10))
"244 (protein, Synthetic Polypeptide sequence of Variant No. 244 of mature Human GLA) LDNGLARTPTMGWLHWERFMCNLDCQEEPDSCISEKLFMEMAELMVSEGWKDAGYEYLCIDDCWMAPQRDSEGRLQADPQRFPHGIRQLANYVHSKGLKLGIYADVGNKTCAGFPGSFGYYDIDAQTFADWGVDLLKFDGCYCDSLENLADGYKHMSLALNRTGRSIVYSCEWPLYMWPFQKPNYTEIRQYCNHWRNFADIDDSWASIKSILDWTSFNQERIVDVAGPGGWNDPDMLVIGNFGLSWDQQVTQMALWAIMAAPLFMSNDLRHISPQAKALLQDKDVIAINQDPLGKQGYQLRKGDNFEVWERPLSGDAWAVAMINRQEIGGPRSYTIAVASLGKGVACNPGCFITQLLPVKRKLGFYEWTSRLRSHINPTGTVLLQLENTMQMSLKDLL",+++ (+++ = >2.5 relative activity over Rd2BB (SEQ ID NO: 10)),+++ (+++ = >2.5 relative activity over Rd2BB (SEQ ID NO: 10)),+++ (+++ = >2.5 relative activity over Rd2BB (SEQ ID NO: 10)),+++ (+++ = >2.5 relative activity over Rd2BB (SEQ ID NO: 10))
